Measured values as given in the nanobody polyreactivity screen of Harvey et al. (2022).

Experiment: yeast display, Sf9 membrane polyspecificity reagent, FACS + sequencing; frameworks hold sequencing errors
Summary of the method: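 Using colony PCR, genes from sorted yeast display clones were amplified, then sequenced on MiSeq at 2 × 250 and filtered by CDR length. The clones had been stained with 10% biotinylated, detergent-solubilized Sf9 membrane reagent for 1 hour at 4 °C and sorted by FACS into low and high (top ~1%) gates on anti-HA and streptavidin fluorescence. Polyreactivity labels come from the gate of origin.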

| Sequence | polyreactivity (PSR sort gate) |
| --- | --- |
| QVQLVESGGGLVQAGGSLRLSCAASGSTVYTNAMGWYRQAPGKERELVAAISSSGDSTYYADSVKGRFTISRDNAKNTVYLQMNSLKPEDTAVYYCAADKYLSYDFWGQGTQVTVSS | low polyreactivity |
| QVQLVDSGGGLVQAGGSLRLSCDASGSIFFWYTMGWYRQAPGKESELVATITGSGSSTTYADSVKGRFTISRDNAKNTVYLQMISLKPEDTAVYYCAAADIIDHSFPYDYWGLGTQVTVSS | low polyreactivity |
| QVQLVESGGGLVQAGGSLRLSCPACGRTFNRYAMGWYRQAPGKERELVATISNSGRTYYADSVKGRFTISRDNAKNTVYLQMNSLKPEDTAVYYCAAQLPSYYKYPRHDYWGKGTQVTVSS | high polyreactivity |
| QVQLVESGGGLVQAGGSLRLSCAASGRIFPFYAMGWYIQAPGKERELVAAISRSGRTNYADSVKGRFTISRDNAKNTVFLQMNSLKPEDTAVYYCNADYYLFDFDSWGQGTQVTVSS | low polyreactivity |
| QFQLVESGGGLVQAGGSLRLSCAASGLTIYSYSMGWYRQAPGKERELVAAITWRGGSTYYADSVKGRFTISRDHAKNTDYLQMNSVKPEDTALYYCAADPGPYGYYYWGQGNQVTVSS | low polyreactivity |
| QVQLVESGGGLVQAGGSLRLSCAASGSTFRANAMGWYRQAPGKERELVAAITSGGSTNYADSVKGRFTISRDNAKNTVYLQMNCLKPEDTAVYYCADESYQEHSFYVYYGYDYWGQGTQVTVSS | low polyreactivity |
| QVQLVESGGGLVQAGGSLRLSCAASGFIFVKYVMGWYRQAPGKERELVATITNGVSTNYADSVKGRFTISRDNAKNTVYLQMNSLKPEDTAVYYCNTGSNAWYFSGDYWGQGTQVTVSS | low polyreactivity |
| QVKLVESGGGLVQAGGSLRLSCAASGLIFQNYAMVWYRQAPGKERELVAAISRRGGRTNYADSVKGRFTISRDNAKNNVYLQMKSLKPEDTAVYYCNAKARQSYYYRFDYWGQGTQVTVSS | high polyreactivity |
| QVQLVESGGGLVQAGGSLRLSCAASGSIFYYYAMGWYRQAPGKERELVADISRSGTSTYYADSVKGRFTISRDNAKNTVYLQMNSLKPEDTAVYYCNVLRVKSITYLMDYWGQGTQVTVSS | high polyreactivity |
| QVQLVESGGGLVQAGGSLRLSCAAYGIIFTWYVMGWYRQAPGKERELVAAISASGASTYYADSVKGRFTISRDNAKNTVYLQMNSLKPEDTAVYYCAARYGWYPVRQPRPGGDYWGQGTQVTVSS | high polyreactivity |
| QVQLVESGGGLVQAGGSLRLSCAASGSTYVGYTLGWYRQAPGKERELVAAITRRSGSTYYADSVKGRFTISRDNAKNTVYVQMNSLKPEDTAVYYCAKDFSRYSRFGHTEHDYWGQGTQVTVSS | high polyreactivity |
| QVQLVESGGGLVQAGCSLRLSCAASGFTFFKYAMGWYRQAPGTERELVAAITRNGGRTYYADSVKGRFTISRDNAKNTVYLQMNSLKPEDTAVYYCAARYANLRNGYRYDYWGQGTQVTVSS | high polyreactivity |
| QVQLVESGGGLVQAGGSLRLSCAASGSTFRGYAMGWYRQAPGKERELVAAIISDGTTNYADSVKGRFTISRDNAQTTVYLQMNSLKPEDTAVYYCNAEVQGGRPQFDYWGQGTQVTVSS | low polyreactivity |
| QVQLVESGGGLVQAGGSLRLSCAASGFTFADYAMGWYRQAPGKEREWVAAISNGGSTTYADSVKGRFTSSRDNAKNTVYLQMNTLNPEDTAVYYCAAALSSYGWYAYGPWYGYWGQGTQVTVSS | high polyreactivity |
| QVQLVESGGGLVQAGGSLRLSCAASGRIFKWYAMGWYRQAPGKERELVAAITSGGGSTYYADSVKGRFTISRDNAKNTVYLQMNSLKPEDTAVYYCNSWSSYGYDYWGQGTQVTVSS | high polyreactivity |
| QVQLVESGGGLVQAGGSLRLSCAASGSIFQIYAMGWYRPAPGKERELVAAINSGGITKYADSVKGRFTISRDNAKNTVYLQMNSLKPEDTAVYYCAKRYGWPYGRFDYWGQGTQVTVSS | low polyreactivity |
| QVQIVESGGVLVQAGGSLRLSCAASGLTFVQYDMGWYRHAPGKERELVADISGSAGDTYYADSVKGRFTISRDNAKKTVYLQMNSLKPEDTAVYYCNAYGAEYLQYGWRDYWGQGTQLTVSS | low polyreactivity |
| QVQLVESGGGLVQAGASLRLSCAASGSTFYGNTMGWYRQAPGKERELVAAITSTGRTYYADSVKGRFTLSRDNAKNTVYLQMNSLKPEDTAVYYCAASQRRRFQRPSFDYWGQGPQVTVSS | high polyreactivity |
| QVQLEESGGGLVQAVGSLRLTCAASGLIFKSNAMGWYRQAPGKERQLVAAITRTGGSTYYADSVKGRFTISRDNAKNTVYLQMNSLKPEDTAVYYCAVLYDRYGRAYYYWGQGTQVTVSS | high polyreactivity |
| QDQLVESGVGLVQAGGSHRLSCAASGSTFYRYAMRWYRQAHGKERELVATITTGGSSTYYADSVKGRFTISRDNAKNTVYLQMNSLKPEDTAVYYCAKVYTYSGVNLRRISTPYGYWGQGTQVTVSS | high polyreactivity |
| QVHHVESGGGLVQAGGSLRLSCAASGFIFVHNAMGCYSQAPGKERELVAAIRSRGGSTYYADSVKGRFTISRDNAKNTVYLQMNRLKPEDTAGYYCAADGAVVSSSRKFGYWGQGTQVTVSS | low polyreactivity |
| QGQLEESGGGLVQAGGSLRLSCAASGRIFRYNTMGWYRQAPGKERELVADITSSDSSTYYADSVKGRFTISRDNAKNTLYLQMNSLKPEDTEVYFCAARDSGYGWRYYYWGHGTQVTVSS | low polyreactivity |

| Sequence | polyreactivity (PSR sort gate) |
| --- | --- |
| QVQLVESGGGLVQAGGSLRLSCAASGSTYVGYAMGWYRQAPRKERDLVADIDSIGGSTYYADTVKRRFTISRDKAKNTVYLQMNSLKPEDTAVYYCAARRFDTALVLYDYWGQCTQVTVSS | low polyreactivity |
| QVQLVESGGGLVQAGGSLRLSCAASVITFDVYAMGWYRPAPGKERELVAAISSVGGTYYADSVKGRFTISRDNAKNTVYLQMISLKPEDTAVYYCNTDGYVGSIRSGLYIYDYWGQGTQVTVSS | low polyreactivity |
| QFQLVESGGGLVQAGGSLRLSCAASGRIFGVYARGWYRQAPGKERELVAAISSTGGSTYYADSVKGRFTISRDTAKNTVYLQMNSLKPEDTAVYYCEYDYWGQGTQVTVSS | low polyreactivity |
| QVQLVESGGGLVQAGGSLRLSCAASGRTFTQNAMGWYRQAPAKERELVAAISKSGDRTYYADSVKGRFTISRDNAKNTVYLQMNSLKPEDTAVYYCAADTYVSYYWWQTEDDYWGQGTQVTVSS | high polyreactivity |
| QVQLVESGGGLVQAGGSLRLSCAASGGTFNGYAMGWYRQAPGKERELVAAITSGGGSTYADSVKGRFTISRDNAKNTVYLQMNSLKTEDTAVYYCNADQWDEWFWDYDYWGQGTQVTVSS | low polyreactivity |
| QVQLVESGGGLVQAGGSLRLSCAASGSTFSSYVMGWDRQAPGKERELVAAISSIGGSTYYADSVKGRFTISRDNAKNTVYLQMNSQKPEDTAVYYCPAEPPGSTYEGGYWGQGTQVTVSS | low polyreactivity |
| QVQLVESGGGLVQAGGSLRLSCAASGILSNYYAMGWYRQAPGKERELVASIRLSGGRTYYADSVKGRFTISRDNAKNTVYLQMNSLKPEDTAVYYCAAGTRRTYSKFDYWGQGTQVTVSS | high polyreactivity |
| QVQLVESGGGLVQAGGSLRLSCAASGRIFGVYAMGWSRQAPGKERELVATITSGGSTSYADSVKGRFTISRDNAINTVFLQMNSLKPEDTAVYYCNAPYSFFWQQMNYWGQGTQVTVSS | low polyreactivity |
| QVQLVESGGGLVQAGGSLRLSCAASGFTFVPYAMGWYIQAPGKERELVAAISSRGDSTYYADSVKGRFTISRDNAKNTVYLQMNSLKPEDTAVYYCNARTTPHMDYWGQGTQVTVSS | low polyreactivity |
| QVQLVESGGGLLQAGGSLRLSCAASGSLFGGYAMAWYRQAPGKEREFGAAISGRGASTYYADSVKGRFTISRDNAKTTVYLQMNSLKPEDTAVYDCNARADGRIDGHSATYGYWGQGTQVTVSS | high polyreactivity |
| QVQLVESGGGLVQSGGSLRLSCAGSGSTFHYNAMGWYRQAPGKEREFVAAISRTGTSTYYADSVKGRFTISRDNAKNTVYLQMNSLKPEDTAVYYFAAKSLRSGMGYWGQGTQVTVSS | high polyreactivity |
| QVQLVESGGGLVQAGGSLRLSCAASGSIFFYYAMGWYRQAPGKERELVAAINSDGSTNYADSVKGRFTISRDNAKNTVYLQMNSVKPEDTAVYYCAADYVYYYHEYDYWGQGTQVTVSS | low polyreactivity |
| QVQLVESGGGLVQSGGSLRLSCAASGSIFTGYAMGWYRQAPGKERELVAAITGRGTRTYYADSLKGRFTISRDNANNTVSLQMNSLKPEDTAVYYCAAPVGASSYRDYYWGQGTQVNVSS | high polyreactivity |
| QVQLVESGGGLVQAGGSLRISCAASGRTFARYVMGWYRQAPGKERELVAAISGGGGSTYYADSVKGRLTISRDTAKNTVFLQMNSLKPAETAVYYCAAVPEGPNTGDDANGLDYWGQGTQVTVSS | low polyreactivity |
| QVQLVESGGGLVQAGGSLRLSCAASGFTFPYYAMGWYRQAPGKERELVADITSGGGTNYADSVKGRFTISRDNAKNTVFLQMNSLKPEDTAVYYCAADAYHQGMDYWGQGTQVTVSS | low polyreactivity |
| QVQLVESGGGLVQAGGSLRLSCAASGSTFFHYVMGWYRQAPGKEREVVAAIRWSGGRTRYADSVKRRFTISRDNAKITVYLQMNSLIPEDTAVFYCAAYRLSKPFYKYDYWGQGTQVTVSS | high polyreactivity |
| QVQLVESGGGLVQAGGSLRLSCAASGRISESNDMGWYRQAPGKEREVVAAISSSGGSTYYADSVKGRFTISRDNAKNTVYLQMNSLKPEETAVDYCNAVYYRTVLKIGVYEYDYWGQGTQVTVST | low polyreactivity |
| QVQLVGSGGGLVQAGGSLRLSCAASGIIFQLYAMGWYRQAPGKERELVAAITSTGTTNYADSVKGRFTISRDNAKNTVYLQMNCLKPEDTAVYYCNADVGYWWGYYGYDYWGQGTQVTVSS | high polyreactivity |
| QVQLVESGGGLVQAGGSLRLICAASGRTFRKYAMGWYRQAPGKERELVAAINRGGTTKYADSVKGRFTISRDNAKNTVYLQMNSLKPEDTAVYYCNAAYGGVFFYAYDYWGQGTQVTVSS | low polyreactivity |
| QVQLVESGGGLVQAGGSLRLSCAASGFIFQWYAMGWYRQAPGKERELVAAISIGDSTYYADSVKGRFTISRDNAKNTVYLQMNSLKPADTAVYFCNADPWGYYSVIPLYEYDYWGQGTQVTVSS | low polyreactivity |
| QVQLVESGGGLVQAGASLRLSCAASGRIFVVNAMGWYRQAPGKERELVATITRSGGITYYADSVKGRFTISRDNAKNTVYLQMNSLKPEDTAVYYCNADVLFYTYYTRGRFDFDYWGQGSQVTVSS | low polyreactivity |
